Experiments:
[1] = Catalytic activity of HSL proteins on HPPD inhibitors (HPLC, substrate consumption); format: biochemical; settings: 30° C., 10 h, protein 0.5 mg/mL; for Catalytic efficiency (%) Compound A: substrate Compound A 50 μM; for Catalytic efficiency (%) benzobicyclon technical: substrate benzobicyclon technical 50 μM; for Catalytic efficiency (%) Mesotrione: substrate mesotrione 50 μM; for Catalytic efficiency (%) methyl-benquitrione: substrate methyl-benquitrione 50 μM; for Catalytic efficiency (%) pyraquinate technical: substrate pyraquinate technical 50 μM; for Catalytic efficiency (%) tefuryltrione: substrate tefuryltrione 50 μM; for Catalytic efficiency (%) tembotrione: substrate tembotrione 50 μM
Protocol: (§1) Each sample was replicated three times. • e.
(§2) Control: refers to the addition of inhibitors to the reaction system, but not the addition of enzymes, which is regarded as the substrate surplus when the inhibitor is not catalyzed.
(§3) Sample: in the enzyme reaction system, the same volume and the same concentration (50 μM) of the inhibitor was added, and the catalytic efficiency of the enzyme to the inhibitor was observed.
(§4) Catalytic efficiency=(1−(peak area of substrate in sample)/(peak area of substrate in control))×100%.

[2] = format: biochemical; settings: substrate topramezone 50 μM; 30° C.; 10 h; protein 0.5 mg/mL
Protocol: as §1, §2, §3, §4

Molecule	Catalytic efficiency (%) Compound A [1]	Catalytic efficiency (%) benzobicyclon technical [1]	Catalytic efficiency (%) Mesotrione [1]	Catalytic efficiency (%) methyl-benquitrione [1]	Catalytic efficiency (%) pyraquinate technical [1]	Catalytic efficiency (%) tefuryltrione [1]	Catalytic efficiency (%) tembotrione [1]	Catalytic efficiency (%) topramezone [2]
OsHSL1_L204F/F298L/I335F: SEQ ID NO.1 with L204 to phenylalanine, F298 to leucine, I335 to phenylalanine (protein, listed as Oryza sativa) MADESWRTPAIVQELAAAGVEEPPSRYVLGEKDRSDELVAAELPEPIPVVDLSRLAGADEAAKLRAALQNWGFFLLTNHGVETSLMDDVLNLAREFFNQPIERKRKFSNLIDGKNFQVEGYGTDRVVTQDQILDWSDRLFLRVEPKEERNLAFWPDHPESFRDVLNEYASRTKRIRDDIVQAMSKLLGLDEDYFFDRLNKAPAFARFNYYPPCPRPDLVFGVRPHSDGSLFTILLVDEDVGGLQIQRDGKWYNVQVTPNTLLINLGDTMEVLCNGIFRSPVHRVVTNAERERISLAMLYSVNDEKDIGPAAGLLDENRPARYRKVSVGEFRAGIFGKFSRRERYIDSLKI	47%	100%	56%	35%	52%	94%	0%	1%
OsHSL1_F140H/L204F/F298L/I335W: SEQ ID NO.1 with F140 to histidine, L204 to phenylalanine, F298 to leucine, I335 to tryptophan (protein) MADESWRTPAIVQELAAAGVEEPPSRYVLGEKDRSDELVAAELPEPIPVVDLSRLAGADEAAKLRAALQNWGFFLLTNHGVETSLMDDVLNLAREFFNQPIERKRKFSNLIDGKNFQVEGYGTDRVVTQDQILDWSDRLHLRVEPKEERNLAFWPDHPESFRDVLNEYASRTKRIRDDIVQAMSKLLGLDEDYFFDRLNKAPAFARFNYYPPCPRPDLVFGVRPHSDGSLFTILLVDEDVGGLQIQRDGKWYNVQVTPNTLLINLGDTMEVLCNGIFRSPVHRVVTNAERERISLAMLYSVNDEKDIGPAAGLLDENRPARYRKVSVGEFRAGIWGKFSRRERYIDSLKI	98%	100%	88%	90%	17%	70%	55%	0%
OsHSL1_F140H/L204F/I335F: SEQ ID NO.1 with F140 to histidine, L204 to phenylalanine, I335 to phenylalanine (protein) MADESWRTPAIVQELAAAGVEEPPSRYVLGEKDRSDELVAAELPEPIPVVDLSRLAGADEAAKLRAALQNWGFFLLTNHGVETSLMDDVLNLAREFFNQPIERKRKFSNLIDGKNFQVEGYGTDRVVTQDQILDWSDRLHLRVEPKEERNLAFWPDHPESFRDVLNEYASRTKRIRDDIVQAMSKLLGLDEDYFFDRLNKAPAFARFNYYPPCPRPDLVFGVRPHSDGSLFTILLVDEDVGGLQIQRDGKWYNVQVTPNTLLINLGDTMEVLCNGIFRSPVHRVVTNAERERISLAMFYSVNDEKDIGPAAGLLDENRPARYRKVSVGEFRAGIFGKFSRRERYIDSLKI	35%	100%	89%	23%	2%	100%	36%	40%
